In the supplement of paper PMC9170038:

Tested on: MS2 coat protein
Assay: apparent KD of MS2 coat protein; designed switch direction (-1 OFF switch, 1 ON switch): -1; higher = weaker reporter binding
Outline: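 RNA switches sharing common flanks were transcribed by stalled E. coli RNA polymerase on Illumina chips. A doubling series of SNAP-549-labelled MS2 coat protein, from 0.7 or 1.5 nM to 3 µM, was applied in Tris-HCl pH 7.5 buffer with KCl, MgCl2, BSA, DTT, tRNA and Tween-20. Each step lasted 0.8–1.5 h at the bottom of the series and 10–20 min at the top. Normalised cluster fluorescence was curve-fitted, giving apparent KD as the per-design median over clusters.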

[1] = Eterna round: R95, input ligand: FMN 200 uM
[2] = Eterna round: R95, input ligand: microRNA oligo, concentration not stated
[3] = Eterna round: R95, input ligand: none
[4] = input ligand: microRNA oligo, concentration not stated

GUUUUCAGACGGAGAUCCUACAUGAGGAUCACCCAUGUCUCACUUGUUUUUUGCUCGUCUUAUCCUCCUCUGUUCUC [Elimod 30 - Jieux - Sensor, turn-off variant 1] (Eterna round: R97, puzzle: Sensor, turn-off variant 1)
apparent KD of MS2 coat protein (input ligand: FMN 200 uM): 414 nM
apparent KD of MS2 coat protein (input ligand: none): 667 nM

GUUUUCAGACGGAGAUCCUACAUGAGGAUCACCCAUGUCUCUCUUGUUUUUUGCUCGUCUUAUCCUCCUCUGUUCUC [Elimod 31 - Jieux - Sensor, turn-off variant 1] (Eterna round: R97, puzzle: Sensor, turn-off variant 1)
apparent KD of MS2 coat protein (input ligand: FMN 200 uM): 467 nM
apparent KD of MS2 coat protein (input ligand: none): 520 nM

GUUUUGGGAGGAUAUAUGUGGAUAAUUUUUAUAUGAAAAUUACAUGAGGAUCACCCAUGUAGAAGGUCUAGAGC [-17.2, -15.1 kcal, 32% A] (Eterna round: R97, puzzle: Exclusion 2)
apparent KD of MS2 coat protein (input ligand: FMN 200 uM): 473 nM
apparent KD of MS2 coat protein (input ligand: none): 637 nM

GUUUUGUGAGGAUAUCCCUAUCAUCUAGCUGACUAGAUGGUGGAGAAGGCACAUGAGGAUCACCCAUGUGGGAG [Eternabot (L1) Solution 3] (Eterna round: R97, puzzle: Exclusion 4)
apparent KD of MS2 coat protein (input ligand: FMN 200 uM): 111 nM
apparent KD of MS2 coat protein (input ligand: none): 90.1 nM

UAAAAGGUAGGAUAUACGAAAAAAAAGGGUAGAAAAAAAACACAUGAGGAUCACCCAUGUAGAAGGACCAAAAU [salish99_ex2_r3_041] (puzzle: Exclusion 2)
apparent KD of MS2 coat protein [1]: 89.7 nM
apparent KD of MS2 coat protein [2]: 28.6 nM
apparent KD of MS2 coat protein [3]: 26.9 nM

UAAAAGUGAGGAUAUACGUGAAAUCCGCCAGGCGGAGAUCUACAUGAGGAUCACCCAUGUAGAAGGCACGGAAU [EX2 A.13] (Eterna round: R97, puzzle: Exclusion 2)
apparent KD of MS2 coat protein (input ligand: FMN 200 uM): 15.8 nM
apparent KD of MS2 coat protein (input ligand: none): 14 nM

UAAACCAGAGGAUAUGCGAAUAAAUAAAACUUUUUUUUUUAACAUGAGGAUCACCCAUGUAGAAGGCUGCAAAU [Ex2 #33] (Eterna round: R97, puzzle: Exclusion 2)
apparent KD of MS2 coat protein (input ligand: FMN 200 uM): 30 nM
apparent KD of MS2 coat protein (input ligand: none): 38.9 nM

UAAAGAGCAGGAUAUCUAAUGUAUCACAUGAGGAUCACCCAUGUCCAGCGAAAGCUGGAGGGAGAAGGGCUCUAAU [Mat - Exclusion 5 - Eli mod - D103] (puzzle: Exclusion 5)
apparent KD of MS2 coat protein [1]: 178 nM
apparent KD of MS2 coat protein [2]: 182 nM
apparent KD of MS2 coat protein [3]: 130 nM

UAAAGGCUAGGAUAUCGCACCUUCGACAUGAGGAUCACCCAUGUAUGUCGAUGGUAAAAUCGAGAAGGAGCGAGAA [Artiedqu] (puzzle: Exclusion 5)
apparent KD of MS2 coat protein [1]: 31.7 nM
apparent KD of MS2 coat protein [2]: 21.7 nM
apparent KD of MS2 coat protein [3]: 17.8 nM

UAAAGUAUAUAGGAUAUCUAGCUGGUAACAGCUAGAGAAGGAUGUACAUGAGGAUCACCCAUGUAAAUCGUGAA [Ex6/13-A2] (Eterna round: R97, puzzle: Exclusion 6)
apparent KD of MS2 coat protein (input ligand: FMN 200 uM): 20.5 nM
apparent KD of MS2 coat protein (input ligand: none): 16.9 nM

UAAAUCGCAGGAUAUCCAGAGGAGGACAUGAGGAUCACCCAUGUGGAAAGGAAAGGAGGAGGAGAAGGGCGAUUUA [Paired] (Eterna round: R97, puzzle: Exclusion 5)
apparent KD of MS2 coat protein (input ligand: FMN 200 uM): 84.4 nM
apparent KD of MS2 coat protein (input ligand: none): 72.5 nM

UAAAUGCUGCGAGGAUAUACAUGAGGAUCACCCAUGUGGAUGUCUGAGGCUUUGCCUCAGACGAUGUAGAAGGCGCAGUAAAAU [Mat - Exclusion NG 2 - Mod of JL - D52] (Eterna round: R96, puzzle: Exclusion NG 2)
apparent KD of MS2 coat protein (input ligand: FMN 200 uM): 134 nM
apparent KD of MS2 coat protein [4]: 15.7 nM
apparent KD of MS2 coat protein (input ligand: none): 22.5 nM

UAAAUGUGAGGAUAUCAGGUGUGCUAGAAUACUGGUACAUCUGAGAAGGCACAUGAGGAUCACCCAUGUUCCUU [Mat - Exclusion 4 - Mod of JL - D53] (puzzle: Exclusion 4)
apparent KD of MS2 coat protein [2]: 15.8 nM

UAACAACAUGAGGAUCACCCAUGUGAGGAUAUGUACGUUCGUUGGCGAACCUUGUUCCGCAGAAGGCAUGUGGG [Eternabot (L1) Solution 28] (Eterna round: R97, puzzle: Exclusion 1)
apparent KD of MS2 coat protein (input ligand: FMN 200 uM): 232 nM
apparent KD of MS2 coat protein (input ligand: none): 38.6 nM

UAACAAGCUUAAAGAUCCUACAUGAGGAUCACCCAUGUGCUCGUCUUAUAACGUACUGUGACGAAAGUCACGGUACG [JL TOV1 3.14] (Eterna round: R97, puzzle: Sensor, turn-off variant 1)
apparent KD of MS2 coat protein (input ligand: FMN 200 uM): 348 nM
apparent KD of MS2 coat protein (input ligand: none): 395 nM

UAACAAGCUUAAAGAUCCUACAUGAGGAUCACCCAUGUGCUCGUCUUGUAACGUACUGUGACGAAAGUCACGGUACG [JL TOV1 3.15] (Eterna round: R97, puzzle: Sensor, turn-off variant 1)
apparent KD of MS2 coat protein (input ligand: FMN 200 uM): 521 nM
apparent KD of MS2 coat protein (input ligand: none): 314 nM

UAACAGCAAGGAUAUACGGGCUGUGCUUUUCAUUUCUUACAACAUGAGGAUCACCCAUGUAGAAGGUGCAACAA [Ex2 #6] (Eterna round: R97, puzzle: Exclusion 2)
apparent KD of MS2 coat protein (input ligand: FMN 200 uM): 54.4 nM
apparent KD of MS2 coat protein (input ligand: none): 24.8 nM

UAACAUCUGAUUCUUGAGAUACAUGAGGAUCACCCAUGUUCACAGGAUAUUGAUUUUAAGAAAAGCAAGAAGGGUGAAUCAUUU [JR_ExcNG3_Sub042] (Eterna round: R96, puzzle: Exclusion NG 3)
apparent KD of MS2 coat protein (input ligand: FMN 200 uM): 34.1 nM
apparent KD of MS2 coat protein [4]: 19 nM
apparent KD of MS2 coat protein (input ligand: none): 20.7 nM

UAACAUGUACAAGGAUAUCAGCACGAUUAGUGCUGAGAAGGUGUAACAUGAGGAUCACCCAUGUAGAUCAUUAAUUAAUUAAUU [ENG1/9-B1] (Eterna round: R96, puzzle: Exclusion NG 1)
apparent KD of MS2 coat protein (input ligand: FMN 200 uM): 319 nM
apparent KD of MS2 coat protein [4]: 60.9 nM
apparent KD of MS2 coat protein (input ligand: none): 56.6 nM

UAACAUGUCUGAGGAUAUCUGCACGUGUAGUGCAGAGAAGGCAGAACAUGAGGAUCACCCAUGUAGAUCAUUAAUUAAUUAAUU [ENG1/7-B3] (Eterna round: R96, puzzle: Exclusion NG 1)
apparent KD of MS2 coat protein (input ligand: FMN 200 uM): 765 nM
apparent KD of MS2 coat protein [4]: 337 nM
apparent KD of MS2 coat protein (input ligand: none): 478 nM

UAACAUGUCUGAGGAUAUCUGCACGUUUAGUGCAGAGAAGGCAGAACAUGAGGAUCACCCAUGUAGAUCAUUAAUUAAUUAAUU [ENG1/7-B2] (Eterna round: R96, puzzle: Exclusion NG 1)
apparent KD of MS2 coat protein (input ligand: FMN 200 uM): 195 nM
apparent KD of MS2 coat protein [4]: 142 nM
apparent KD of MS2 coat protein (input ligand: none): 194 nM

UAACCUCGCGUCAGGAUAUGCGAGGACUGUGACGUGCAGAAGGGACAUGAGGAUCACCCAUGUGAAAGAAUUAA [Acecequ] (puzzle: Brourd's mod of Exclusion 4)
apparent KD of MS2 coat protein [2]: 20.3 nM

UAACUACAUGAGGAUCACCCAUGUCAGGAUAUGCCGUUAAAUUAACAUCAACAUACGGGUAGAAGGGACAGCGU [1st #4] (Eterna round: R97, puzzle: Exclusion 1)
apparent KD of MS2 coat protein (input ligand: FMN 200 uM): 30 nM
apparent KD of MS2 coat protein (input ligand: none): 29.2 nM

UAAGAAUGCAAGGAUAUGGCUAGGUAAAACAUGUCAGAAGGUGCUACAUGAGGAUCACCCAUGUGUCUCGUGCG [Eternabot (L1) Solution 2] (Eterna round: R97, puzzle: Exclusion 6)
apparent KD of MS2 coat protein (input ligand: FMN 200 uM): 75.8 nM
apparent KD of MS2 coat protein (input ligand: none): 64.3 nM

UAAGAGUGAGGAUAUACGUCGCUGGUCCAGAUGGACGCAUGACAUGAGGAUCACCCAUGUAGAAGGCACAAAAC [Enxela Mod 3 - Jieux - Exclusion 2] (Eterna round: R97, puzzle: Exclusion 2)
apparent KD of MS2 coat protein (input ligand: FMN 200 uM): 189 nM
apparent KD of MS2 coat protein (input ligand: none): 32.8 nM

UAAGUUCAGUAGGAUAUUCAGCAGCUGCUGCUAGGAGAAGGGCUGACAUGAGGAUCACCCAUGUGAGUGUCCGU [Eternabot (L2) Solution 55] (Eterna round: R97, puzzle: Exclusion 6)
apparent KD of MS2 coat protein (input ligand: FMN 200 uM): 92.2 nM
apparent KD of MS2 coat protein (input ligand: none): 32.1 nM

UAAUAAAGUGUGAGGAUAUGCUGGUCCUUGGAUCAGCAGAAGGCACAUGAGGAUCACCCAUGUAAUAUAUAAAU [Mat - Exclusion 4 - JL Mod - D55] (puzzle: Brourd's mod of Exclusion 4)
apparent KD of MS2 coat protein [2]: 70.4 nM

UAAUAAAGUGUGAGGAUAUGCUGGUCCUUGGAUCAGCAGAAGGCACAUGAGGAUCACCCAUGUAAUAUAUAUAU [Mat - Exclusion 4 - JL Mod - D54] (puzzle: Brourd's mod of Exclusion 4)
apparent KD of MS2 coat protein [2]: 62.4 nM

UAAUAACAAGCAGGAUCCUACAUGAGGAUCACCCAUGUGCUCGUCUUAUAAAGUACUAUCACGAAAGUGAUAGUACU [Mat - Sensor v3 - turn-off var 1 - Eli Mod - D73] (puzzle: Sensor v3, turn-off variant 1)
apparent KD of MS2 coat protein [1]: 208 nM
apparent KD of MS2 coat protein [2]: 71.9 nM
apparent KD of MS2 coat protein [3]: 250 nM

UAAUACAUCUAUGGGAGUAACAUGAGGAUCACCCAUGUAUGUCUUGUUUUUUGUUCGUCAUAGACUUUCUGAUCAGU [JR_SV3TOV1_Sub029] (puzzle: Sensor v3, turn-off variant 1)
apparent KD of MS2 coat protein [1]: 47.9 nM
apparent KD of MS2 coat protein [2]: 175 nM
apparent KD of MS2 coat protein [3]: 52.2 nM

UAAUGUGCGAGAGGAUAUCGUGUACAAAGUACACGAGAAGGCUUCACAUGAGGAUCACCCAUGUACCGAGGUGAAACACCUUGG [Omei Exc(NG)1 Bv1] (Eterna round: R96, puzzle: Exclusion NG 1)
apparent KD of MS2 coat protein (input ligand: FMN 200 uM): 355 nM
apparent KD of MS2 coat protein [4]: 171 nM
apparent KD of MS2 coat protein (input ligand: none): 220 nM

UAAUUAAAUGUAAGGAUAUGGCAAUGCGGUGGCAGUUAGAAGGUACAUGAGGAUCACCCAUGUGUGUAUCGUGA [Eternabot (L1) Solution 93] (Eterna round: R97, puzzle: Brourd's mod of Exclusion 4)
apparent KD of MS2 coat protein (input ligand: FMN 200 uM): 233 nM
apparent KD of MS2 coat protein (input ligand: none): 248 nM

UAAUUAAAUGUAGGAUAUCUGCACGAUUAGUGCAGAGAAGGACAUGAGGAUCACCCAUGUAGAUCAAAUUAAAUUAAUUUAAUU [ENG1/5-D1] (Eterna round: R96, puzzle: Exclusion NG 1)
apparent KD of MS2 coat protein (input ligand: FMN 200 uM): 92.2 nM
apparent KD of MS2 coat protein [4]: 24.5 nM
apparent KD of MS2 coat protein (input ligand: none): 33.8 nM
